From article PMC3907796, “The C-Terminal Region of G72 Increases D-Amino Acid Oxidase Activity” (International Journal of Molecular Sciences, 2013)
No end group written: not given here. *: point of attachment. Biotin = O=C1N[C@H]2[C@H](CS[C@H]2CCCCC(=O)*)N1

B1: N-terminally biotinylated G72(123-153) peptide (peptide, UniProt P59103 123-153, looked up)
peptide: Biotin-RQPLERMWTCNYNQQKDQSCNHKEITSTKAE
modifications: cysteine pairing not given here
B2: N-terminally biotinylated G72(138-153) peptide (peptide, UniProt P59103 138-153, looked up)
peptide: Biotin-KDQSCNHKEITSTKAE
B4: DAO-6H (recombinant D-amino acid oxidase with C-terminal (His)6) (enzyme)
chain: not shown
notes: D-amino acid oxidase (DAO), cDNA amplified with DAO-F'-NdeI/DAO-R'-XhoI (the primers of the full-length 1044 bp cDNA, GI:30524341), in pET23a(+); Detected in the pull-down with anti-His-tag; also called recombinant DAO; source: E. coli BL21(DE3)pLysS, purified (HisTrap FF); not shown: His6, C-terminal, kept

Columns and labels:
[1] = target: B4; assay: cell-based or functional assay
[2] = target: T1, BD-G72 (full-length G72 N-terminally tagged with the binding domain) (UniProt P59103 1-153); assay: two-hybrid; β-galactosidase activity of AH109 transformants grown in SD/-2 broth at 30 °C, normalised to yeast with the AD and BD tags alone; conditions: partners not purified
T1 construct: probably pGBKT7; The BD fusion was detected with anti-c-Myc; also called full-length BD-G72; G72 isoform 1; source: yeast two-hybrid fusion, S. cerevisiae AH109; not shown: from the vector pGBDT7), N-terminal, kept
T1 sequence (looked up): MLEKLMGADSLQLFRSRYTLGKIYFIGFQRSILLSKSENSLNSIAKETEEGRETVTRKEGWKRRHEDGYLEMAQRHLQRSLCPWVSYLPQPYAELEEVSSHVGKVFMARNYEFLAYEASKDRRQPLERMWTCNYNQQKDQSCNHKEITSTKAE

[3] = target: B2; assay: pull-down; 10 μg biotinylated G72 peptide on streptavidin Sepharose beads, 10 μg DAO-6H in phosphate-buffered saline, 4 °C, 3 h, ten washes; DAO detected by Western blotting (anti-His-tag); beads alone as control; conditions: both partners purified
[4] = target: B1; assay: as above; conditions: both partners purified

How did the “initial velocity (V0) of DAO activity (400 nM DAO-6H, 40 mM D-alanine, 25 °C) with 0, 1, 3, 10 μM G72(123-153); V0 at 10 μM, fold of DAO alone in parentheses” value [1] turn out when B1 was run?
Its value is 2.71 mol hydrogen peroxide produced/min/g DAO.

B2 was tested. Which “initial velocity (V0) of DAO activity (400 nM DAO-6H, 40 mM D-alanine, 25 °C) with 0, 1, 3, 10 μM G72(138-153); V0 at 10 μM, fold of DAO alone in parentheses” value [1] did it give?
Its value is 2.94 mol hydrogen peroxide produced/min/g DAO.

B3: AD-DAO (D-amino acid oxidase N-terminally tagged with the activation domain) (enzyme)
chain: not shown
notes: D-amino acid oxidase (DAO), full-length cDNA of 1044 bp, GI:30524341; The AD fusion was detected with anti-HA; source: yeast two-hybrid fusion, S. cerevisiae AH109; not shown: from the vector pGADT7), N-terminal, kept
B3 was tested. Which “relative interaction strength by β-galactosidase activity (AD tag with BD tag = 1)” value [2] did it give?
Its value is 5.7 fold.

Which results are given for B4?
relative amount of DAO pulled down (against beads alone) [3]: 2.17 fold; relative amount of DAO pulled down (against beads alone) [4]: 1.38 fold
